The test system of this data set is MS2 coat protein. The experiment in a line: apparent KD of MS2 coat protein; designed switch direction (-1 OFF switch, 1 ON switch): -1; higher = weaker reporter binding. In short, it runs like this:
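Apparent KD, taken as the median over clusters for each design, was obtained by curve-fitting normalised cluster fluorescence. Designed RNA switches had been transcribed on Illumina chips by stalled E. coli RNA polymerase and titrated with SNAP-549-labelled MS2 coat protein, doubling from 0.7 or 1.5 nM to 3 µM.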

Setting [1] is: Eterna round: R95, input ligand: FMN 200 uM.
Setting [2] is: Eterna round: R95, input ligand: microRNA oligo, concentration not stated.
The mark [3] stands for this setting: Eterna round: R95, input ligand: none.
Where [4] appears, read: input ligand: microRNA oligo, concentration not stated.

Regarding “ACAAGCUUUUUCAUAUCUUACAUGAGGAUCACCCAUGUUUUUGCAAUUAUGUUUGGGCUCUUUUGUGCUCGUCUUAU [JR_STOV1_Sub049] (Eterna round: R97, puzzle: Sensor, turn-off variant 1)”, the “apparent KD of MS2 coat protein” value by setting is: (input ligand: FMN 200 uM) 14.9 nM; (input ligand: none) 15.4 nM.
“ACAAGCUUUUUGUUCGUCUUAUAAAAUCCUAAGAGGAUAACAUGAGGAUCACCCAUGUAACAAAGACGGACUCAUGU [Sesor Array 13 - Jieux - Sensor v3, turn-off variant 2] (puzzle: Sensor v3, turn-off variant 2)”: the “apparent KD of MS2 coat protein” value by setting is: under setting [1], 11.7 nM; under setting [2], 120 nM; under setting [3], 9.57 nM.
With “ACAAGCUUUUUGUUCGUCUUAUAAUAUUAAAUAAAGAUAACAUGAGGAUCACCCAUGUAACAAAGACGGACUCAUGU [Sesor Array 17 - Jieux - Sensor v3, turn-off variant 2] (puzzle: Sensor v3, turn-off variant 2)”, the “apparent KD of MS2 coat protein” value is, setting by setting: under setting [1], 16.2 nM; under setting [2], 200 nM; under setting [3], 13.8 nM.
With “ACACAAAGCUAGGAUAUCGAGGCAUCUUCGGCCCGAGAAGGAGCCACAUGAGGAUCACCCAUGUGGUGAUCCUG [eternacac ex6r4 sub4] (Eterna round: R97, puzzle: Exclusion 6)”, the “apparent KD of MS2 coat protein” value by setting is: (input ligand: FMN 200 uM) 100 nM; (input ligand: none) 121 nM.
“ACACAGAUAGGAUAUCGGACUAUGGACAUGAGGAUCACCCAUGUGCGUCCAAUGUCCGACCGAGAAGGAUCAACAG [Teesvete] (puzzle: Exclusion 5)”: the “apparent KD of MS2 coat protein” value runs as follows: under setting [1], 146 nM; under setting [2], 51.8 nM; under setting [3], 77 nM.
For “ACAGUGCGAGGAUAUACAUGAGGAUCACCCAUGUGAGAGAAAUAAGUGAGGAAGAAAAGUAGAAGGCGCGUUGA [Mat - Exclusion 3 - Mod of Salish D70] (puzzle: Exclusion 3)”, under setting [2], the “apparent KD of MS2 coat protein” value worked out at 45.8 nM.
With “ACAGUUUUGCAAGGAUAUCGUUUUAGUUUAUUACGAGAAGGUGCUUUAGUUAUUUCUUUGGGUUGACAUGAGGAUCACCCAUGU [JR_ExcNG1_Sub057] (Eterna round: R96, puzzle: Exclusion NG 1)”, the “apparent KD of MS2 coat protein” value turned out to be 136 nM (input ligand: FMN 200 uM), 144 nM under setting [4] and 148 nM (input ligand: none).
For “ACAUGACAGCUAGGAUAUAAAUGACAUGAGGAUCACCCAUGUUGUCCCAUGUUGAGGAUCACCCAUUAGAAGGAGCCACCCAUG [Exclusion NG2 S1] (Eterna round: R96, puzzle: Exclusion NG 2)”, the “apparent KD of MS2 coat protein” value is 92.8 nM (input ligand: FMN 200 uM), 49.2 nM under setting [4] and 85.3 nM (input ligand: none).
Regarding “ACAUGACUGCUAGGAUAUAGAUGACAUGAGGAUCACCCAUGUUGUCCCAUGUUUAUGGAAACGGACUAGAAGGAGUAGUAUAUG [Ex NG2 #14] (Eterna round: R96, puzzle: Exclusion NG 2)”, the “apparent KD of MS2 coat protein” value worked out at 30.7 nM (input ligand: FMN 200 uM), 23.4 nM under setting [4] and 27.9 nM (input ligand: none).
Turning to “ACAUGAGGAUCACCCAUGUAAUCAUGAUGGCUGAUGUAGAGCUAGGAUAUGAGUGGCUUUCUAUCUCAGAAGGAGCUAGACUGG [Deportation 41 - Jieux - Exclusion NG 3] (Eterna round: R96, puzzle: Exclusion NG 3)”, the “apparent KD of MS2 coat protein” value was 29.3 nM (input ligand: FMN 200 uM), 18.1 nM under setting [4] and 34.9 nM (input ligand: none).
Regarding “ACAUGAGGAUCACCCAUGUAAUCAUGAUGGCUGAUGUAGAGGUAGGAUAUGUGUGGCUUUCUAUCACAGAAGGACCAAGACUGG [Deportation 38 - Jieux - Exclusion NG 3] (Eterna round: R96, puzzle: Exclusion NG 3)”, the “apparent KD of MS2 coat protein” value reads like this: (input ligand: FMN 200 uM) 46.3 nM; under setting [4], 46.6 nM; (input ligand: none) 59.8 nM.
With “ACAUGAGGAUCACCCAUGUCCGGCUGGUCCGUCUCGGCUGUCGAGGAUAUAGCUCGGUGUCCGCGCUAGAAGGUGGGAGCCGGC [Aenatbe mod 72] (Eterna round: R96, puzzle: Exclusion NG 3)”, the “apparent KD of MS2 coat protein” value (input ligand: FMN 200 uM) was found to be 212 nM, the “apparent KD of MS2 coat protein” value under setting [4] turned out to be 134 nM and the “apparent KD of MS2 coat protein” value (input ligand: none) was found to be 217 nM.
For “ACAUGAGGAUCACCCAUGUCCGGCUGGUCCGUCUCGGCUGUCGAGGAUAUGGCUCGGUGUCCGCGCUAGAAGGUGGGAGCCGGA [Aenatbe mod 75] (Eterna round: R96, puzzle: Exclusion NG 3)”, the “apparent KD of MS2 coat protein” value is, setting by setting: (input ligand: FMN 200 uM) 56.7 nM; under setting [4], 45.1 nM; (input ligand: none) 93.5 nM.
For “ACAUGAGGAUCACCCAUGUCCGGCUGGUCCGUCUCGGCUGUCGAGGAUAUGGCUCGGUGUCCGCGCUAGAAGGUGGGAGCCGGC [Aenatbe mod 73] (Eterna round: R96, puzzle: Exclusion NG 3)”, the “apparent KD of MS2 coat protein” value by setting is: (input ligand: FMN 200 uM) 332 nM; under setting [4], 127 nM; (input ligand: none) 266 nM.
In the case of “ACAUGAGGAUCACCCAUGUCCGGCUGGUCUGUUCCGGCUGUCGAGGAUAUAGUCCGGUGUUCGCGCUAGAAGGUGAGGGCUGGA [Aenatbe mod 45] (Eterna round: R96, puzzle: Exclusion NG 3)”, the “apparent KD of MS2 coat protein” value (input ligand: FMN 200 uM) was 78.9 nM, the “apparent KD of MS2 coat protein” value under setting [4] came to 48.6 nM and the “apparent KD of MS2 coat protein” value (input ligand: none) is 70.1 nM.
Consider “ACAUGAGGAUCACCCAUGUCCGUCUGAUCUGUCUCGGCUGUCGAGGAUAUAGCCCGGUAUCCGCGCUAGAAGGUGGGAGUCGGC [Aenatbe mod 99] (Eterna round: R96, puzzle: Exclusion NG 3)”, for which the “apparent KD of MS2 coat protein” value is 29.8 nM (input ligand: FMN 200 uM), 25.3 nM under setting [4] and 35.7 nM (input ligand: none).
Turning to “ACAUGAGGAUCACCCAUGUCUGGCUGGUCCGUCUCGGCUGUCGAGGAUAUAGCUCGGUGUCCGCGCUAGAAGGCGGGAGCUGGC [Aenatbe mod 81] (Eterna round: R96, puzzle: Exclusion NG 3)”, the “apparent KD of MS2 coat protein” value worked out at 135 nM (input ligand: FMN 200 uM), 52.2 nM under setting [4] and 81 nM (input ligand: none).
Turning to “ACAUGAGGAUCACCCAUGUGAAAACAAUGGCUGACACAGAGAUAGGAUAUAUGUGCAUAUCAAACAUAGAAGGGUCAUUACUGG [Deportation 86 - Jieux - Exclusion NG 3] (Eterna round: R96, puzzle: Exclusion NG 3)”, the “apparent KD of MS2 coat protein” value reads like this: (input ligand: FMN 200 uM) 42.6 nM; under setting [4], 40.2 nM; (input ligand: none) 46.2 nM.
Turning to “ACAUGAGGAUCACCCAUGUGAAAACAAUGGCUGACUAAGAGAUAGGAUAUAUGUGCAUAUCAAACAUAGAAGGGUCAUUACUGG [Deportation 88 - Jieux - Exclusion NG 3] (Eterna round: R96, puzzle: Exclusion NG 3)”, the “apparent KD of MS2 coat protein” value was found to be 36.1 nM (input ligand: FMN 200 uM), 25.3 nM under setting [4] and 37.2 nM (input ligand: none).
Consider “ACAUGAGGAUCACCCAUGUGACCACAAUGGCUGAUGUAACAACAGGAUAUGCGUGAAUAUCUAACGCAGAAGGGUUAUGACUGG [Deportation 60 - Jieux - Exclusion NG 3] (Eterna round: R96, puzzle: Exclusion NG 3)”, for which the “apparent KD of MS2 coat protein” value is, setting by setting: (input ligand: FMN 200 uM) 73.5 nM; under setting [4], 71.6 nM; (input ligand: none) 65.4 nM.

(Values after the supplement of paper PMC9170038.)
